Paper PMC10674851, “Discovery and Characterization of a Dual-Function Peptide Derived from Bitter Gourd Seed Protein Using Two Orthogonal Bioassay-Guided Fractionations Coupled with In Silico Analysis” (Pharmaceuticals, 2023)
No end group written: not given here.

Tests used:
[1] = in vivo, cited from earlier work
Description: Simultaneously, ACE2, a homologue of ACE, counteracts the vasoconstrictor effects by converting Ang-II into Ang 1–7 (a vasodilator). ACE2 also transforms Ang-I into Ang 1–9, and ACE hydrolyzes Ang 1–9 into Ang 1–7, resulting in a vasodilation effect. However, Ang 1–7 has a short half-life of only half an hour in the human body, and i ...

[2] = molecular target: T1, recombinant human dipeptidyl peptidase-IV (DPP4) (Homo sapiens, UniProt P27487); assay: DPP4 inhibitory (DPP4I) activity assay, GP-pNA substrate, absorbance 405 nm; assay type: biochemical; conditions: seven logarithmic concentrations, non-linear interpolation; mean ± SD, triplicate
T1 construct: purchased Sigma-Aldrich Co. (Saint Louis, MO, USA)
T1 sequence (P27487 whole entry): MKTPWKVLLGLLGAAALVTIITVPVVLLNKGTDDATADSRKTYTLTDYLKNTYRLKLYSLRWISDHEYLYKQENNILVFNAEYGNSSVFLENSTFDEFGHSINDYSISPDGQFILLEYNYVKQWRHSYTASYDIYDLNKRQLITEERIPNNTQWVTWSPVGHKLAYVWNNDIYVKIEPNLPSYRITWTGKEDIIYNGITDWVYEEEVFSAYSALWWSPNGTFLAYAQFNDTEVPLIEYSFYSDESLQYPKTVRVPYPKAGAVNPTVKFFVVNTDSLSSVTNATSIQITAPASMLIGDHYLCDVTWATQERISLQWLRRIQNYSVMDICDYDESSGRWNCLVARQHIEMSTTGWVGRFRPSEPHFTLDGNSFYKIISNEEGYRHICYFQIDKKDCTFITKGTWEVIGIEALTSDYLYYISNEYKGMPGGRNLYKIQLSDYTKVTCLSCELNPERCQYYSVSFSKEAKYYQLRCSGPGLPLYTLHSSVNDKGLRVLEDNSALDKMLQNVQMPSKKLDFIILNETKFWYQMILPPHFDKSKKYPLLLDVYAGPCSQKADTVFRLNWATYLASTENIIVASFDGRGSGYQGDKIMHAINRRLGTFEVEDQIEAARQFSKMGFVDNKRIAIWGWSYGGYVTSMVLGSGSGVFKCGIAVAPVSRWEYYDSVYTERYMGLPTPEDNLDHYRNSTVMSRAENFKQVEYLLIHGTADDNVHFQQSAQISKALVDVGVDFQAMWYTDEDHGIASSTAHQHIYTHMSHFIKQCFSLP
Protocol: The DPP4 inhibitory activity was determined as described by Nong, N. T. P. et al., with a few modifications. The testing samples, GP-pNA, linagliptin, and DPP4 were dissolved in 0.1 M Tris-HCl buffer, pH 8.0. Briefly, 25 µL of the testing sample was premixed with 25 µL of 1.6 mM GP-pNA and incubated at 37 °C for 10 min. Then, 50 µL of DPP4 (0.5 U/µL) was added. The reaction was continued for 60 min at 37 °C. The enzymatic reaction was quenched by adding 100 µL of 1 M sodium acetate, pH 4.0. The absorbance of pNA, as a product of the DPP4 and GP-pNA reactions, was monitored using a PowerWave XS (Biotek®, Winooski, VT, USA) 96-well microplate reader at a wavelength of 405nm. DPP4 inhibitory activity was calculated by the following equation:(3) DPP4 inhibitory activity %=1−pNAinhibitor/pNA no inhibitor×100%,
The pNA(inhibitor) and pNA(no inhibitor) were the absorbances of the pNA (λ = 405 nm) acquired in the presence and absence of an inhibitor, respectively. The half-maximal inhibitory concentration of DPP4 inhibition (DPP4I IC50) value was calculated using a non-linear interpolation for at least six logarithmic concentrations of the inhibitor.

[3] = molecular target: T2, angiotensin-I-converting enzyme (ACE) from rabbit lungs (Oryctolagus cuniculus, UniProt P12822); assay: ACE inhibitory (ACEI) activity assay, HHL substrate, hippuric acid by RP-HPLC; assay type: biochemical; conditions: synthetic AW6, seven logarithmic concentrations, non-linear interpolation; mean ± SD, triplicate
T2 construct: angiotensin-I-converting enzyme (ACE) from rabbit lungs; purchased Sigma-Aldrich Co. (Saint Louis, MO, USA); host or cells: rabbit lung tissue
T2 sequence (P12822 34-1310): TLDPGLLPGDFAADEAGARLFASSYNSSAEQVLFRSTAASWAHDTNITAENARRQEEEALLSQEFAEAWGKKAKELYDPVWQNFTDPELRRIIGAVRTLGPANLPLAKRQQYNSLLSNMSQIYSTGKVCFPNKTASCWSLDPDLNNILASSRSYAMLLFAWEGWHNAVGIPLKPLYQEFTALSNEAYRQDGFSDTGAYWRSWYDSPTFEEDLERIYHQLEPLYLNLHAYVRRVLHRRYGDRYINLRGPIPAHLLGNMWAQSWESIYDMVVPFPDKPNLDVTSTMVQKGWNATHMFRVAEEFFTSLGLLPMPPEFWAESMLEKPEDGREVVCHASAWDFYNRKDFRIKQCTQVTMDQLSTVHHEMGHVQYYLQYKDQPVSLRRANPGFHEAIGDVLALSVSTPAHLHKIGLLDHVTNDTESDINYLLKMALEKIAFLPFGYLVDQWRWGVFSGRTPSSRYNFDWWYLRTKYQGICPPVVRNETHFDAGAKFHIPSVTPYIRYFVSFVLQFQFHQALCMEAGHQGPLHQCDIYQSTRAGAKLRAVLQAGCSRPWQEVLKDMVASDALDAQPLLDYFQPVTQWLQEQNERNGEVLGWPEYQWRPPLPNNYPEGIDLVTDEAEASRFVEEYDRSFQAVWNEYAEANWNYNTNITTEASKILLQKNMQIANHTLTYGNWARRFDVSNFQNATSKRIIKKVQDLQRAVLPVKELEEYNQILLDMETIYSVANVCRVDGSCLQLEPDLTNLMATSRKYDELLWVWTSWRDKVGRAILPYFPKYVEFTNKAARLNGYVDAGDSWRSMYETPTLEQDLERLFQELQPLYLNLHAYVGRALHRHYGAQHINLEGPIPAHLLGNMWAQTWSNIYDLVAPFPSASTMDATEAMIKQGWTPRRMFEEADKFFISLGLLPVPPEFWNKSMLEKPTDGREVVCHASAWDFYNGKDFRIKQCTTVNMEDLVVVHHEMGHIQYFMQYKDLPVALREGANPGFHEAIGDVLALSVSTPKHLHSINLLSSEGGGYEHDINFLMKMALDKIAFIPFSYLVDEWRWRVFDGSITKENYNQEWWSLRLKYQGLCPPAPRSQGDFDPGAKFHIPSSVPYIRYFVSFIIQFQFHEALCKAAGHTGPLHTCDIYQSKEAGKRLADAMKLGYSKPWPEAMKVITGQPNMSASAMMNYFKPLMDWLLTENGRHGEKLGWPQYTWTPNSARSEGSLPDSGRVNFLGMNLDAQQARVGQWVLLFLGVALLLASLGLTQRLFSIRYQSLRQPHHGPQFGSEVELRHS
Protocol: The ACEI activity was studied according to Cushman and Cheung [43], with a few modifications. First, 10 µL of the testing sample was premixed with 30 µL of hippuryl–histidine–leucine (HHL) and incubated at 37 °C for 5 min. Then, 20 µL of ACE (0.05 mU/µL) was added. Afterward, the reaction was held statically at 37 °C for 30 min and continued with shaking at 200 rpm for another 30 min. Then, 60 µL of 1 N hydrogen chloride was used to quench the reaction, and 10 µL of 0.25 µg/µL ferulic acid was mixed for an internal standard. […] The area under the curve of hippuric acid (HA) was observed using UV–Vis RP-HPLC at a wavelength of 228 nm, 1 mL/min steady flow rate, and 15 min of isocratic elution (26% ACN with 0.1% TFA in deionized water). The inhibitory activity of ACE was determined using the following equation:(2) ACE inhibitory activity %=1−HAinhibitor/HAno inhibitor×100%,
The HA(inhibitor) and HA(no inhibitor) were the areas under the curve of the hippuric acid acquired in the presence and absence of an inhibitor. The half-maximal inhibitory concentration of ACE inhibition (ACEI IC50) was calculated using a non-linear interpolation constructed with a minimum of six logarithmic concentrations of the testing sample.

IC50 [2] [µM]	IC50 [3] [µM]	Substance	half-life ([1]; human)	time of peak concentration in plasma [1]
		Ang 1–7: vasodilator formed from Ang-II by ACE2	half an hour	one hour
145 ± 4.4	9.6 ± 0.3	APLVSW [AW6, APLVSW]		
